# Test results: patent US12077763B2, “RNA-based control of powdery mildew” (Greenlight Biosciences, Inc., priority 2021, dated 2024)
# B1: ES46: dsRNA trigger SEQ ID NO 110; gene target Hypotethical effector (nucleic acid)
# DNA: TTGGAAGAACCGCCAGAAAACCCAATCAGATACCGATCTCTACTCGGATCATCATTTCACTTCGCAACATGCAATTAACGGTTATGTACCTTCTATAGGCTTTGAATCCGATGGTTATGGGATTAGTAAGAGATCTAATCGTAAAACTGTTCATGGATATTACTGTGGGAGCTCAAAACATGAGCAGCATTTTTATGAGCAGGACTATATTAAAATATATACATGTCAAACATAATGCAAACTTAATTCCATATAGTTAACTGAAATGGTCATTTTTTCACAGCTTTAACTCAATTCCTTTTGAAGAGTGATAACTTTTACTTGCAATTCCTAATTAAAATAAGAGCACAAGCCTTAATTTTTGGATCTAAAATATCAATGCCAACCCCTTGTGCACTGTTGGTAGTGAAAATCTTCGTTATTTGTGACAACATCCACAATCTCGCACTGCGTATTGATA
# B2: GS1894: dsRNA trigger SEQ ID NO 123; gene target eka-like_protein (nucleic acid)
# chain: AAAGGTAGTGGCTCTGGGTCTGGAAAAGGGAAAAATGTAGAAAAGAATGTTGCTGTTGCAACCCCTAAATTACCAAAACCTCCCCAAACCTCACTGAACACATGGGTTACTGTGGCTCGAAATGGTCAGAAGAAGGCCCGAGTTCTTCAAAATAATAATATACACACCACCCCGATGAGTAAAATAAGACCACGAGTATCAATTGTGGAGAGAGCCTCAGCTGCTCCGACAGATAATAGGCTGTTTCTCCGTCTCCCCCAAGAACATGAATGGCGAAAGCTTTCTCCTGCTGAAATACGTAAGGTAATTTTAAAGAAACTTTCAATCTCACCCGTATTGGTTGGGAATACGTGAGGTAATTGTACATTGGTTGGGAAAATTAA
# B3: GS2655 (nucleic acid)
# sense: UGCCAUUCGCGUAUUUUUCUAUUCGAAGACACUCAGUCCUUCAGAGAUUAUUCCAGAAUUGUAUCCUCAAUUACAAUCUUAUUUUUACACAAUACCUCUUUCCCCUAAAUAAAGUACUACAAUGUCAAAUUCCGAAUUAGCAGUUUCGUAUGCUGCCCUUAUCCUCGCAGAUGACGGGGUUGACGUCACAGCAGAUAAGCUACAAUCAUUAAUCAAGGCUGCUGGUAUUGAUGAUGUUGAGCCAAUUUGGACUACUUUAUUUGCCAAGGCUCUCGAUGGCAAAGAUGUGAAAGAUAUGCUCCUGAAUGUAG
# antisense: CUACAUUCAGGAGCAUAUCUUUCACAUCUUUGCCAUCGAGAGCCUUGGCAAAUAAAGUAGUCCAAAUUGGCUCAACAUCAUCAAUACCAGCAGCCUUGAUUAAUGAUUGUAGCUUAUCUGCUGUGACGUCAACCCCGUCAUCUGCGAGGAUAAGGGCAGCAUACGAAACUGCUAAUUCGGAAUUUGACAUUGUAGUACUUUAUUUAGGGGAAAGAGGUAUUGUGUAAAAAUAAGAUUGUAAUUGAGGAUACAAUUCUGGAAUAAUCUCUGAAGGACUGAGUGUCUUCGAAUAGAAAAAUACGCGAAUGGCA
# B4: GS2656 (nucleic acid)
# sense: GCCCGCUUCCUCAGCUAUUCUUGCCUGUUUUGCGUUGACCACAUCCAUAAUUACGCCACCCUUCAACAUGCGAGCCAGGCCGGUUUUGACCCCAAAAUUCUUUUGUCCCACAGGCUUUGAGGUGCCUUUAUUGAUUCCAUUAUUAACGCCACCAUCAGCAGAGACAGGAAUAGGGAUUUCAGUGGCCAUCUUGCAAUUAUCUCAUAAAUAGUGGUAUUAGUUAAGCGCCCGAAGGUUCUUGUCAAAUUCUUCUUGCAAAUAUUAGUAUCAAGAGUUUGCUGAAGAUAUAAAACUAAGAAACGAAUUGUAAUUAACAAAUGGAUUGUAAAAUUUCUCAAAAUGACCGCCUGGUCGAUAUGACUAUGACGUUUAGAGCCAGGAAGUGUUGCAGGAAAAA
# antisense: UUUUUCCUGCAACACUUCCUGGCUCUAAACGUCAUAGUCAUAUCGACCAGGCGGUCAUUUUGAGAAAUUUUACAAUCCAUUUGUUAAUUACAAUUCGUUUCUUAGUUUUAUAUCUUCAGCAAACUCUUGAUACUAAUAUUUGCAAGAAGAAUUUGACAAGAACCUUCGGGCGCUUAACUAAUACCACUAUUUAUGAGAUAAUUGCAAGAUGGCCACUGAAAUCCCUAUUCCUGUCUCUGCUGAUGGUGGCGUUAAUAAUGGAAUCAAUAAAGGCACCUCAAAGCCUGUGGGACAAAAGAAUUUUGGGGUCAAAACCGGCCUGGCUCGCAUGUUGAAGGGUGGCGUAAUUAUGGAUGUGGUCAACGCAAAACAGGCAAGAAUAGCUGAGGAAGCGGGC
# B5: GS2382 (nucleic acid)
# sense: AAAAGUUAUGGCGGAAAUCACUAUAUAUACUGCUUCACAUGCCUUACAAGGAGAAGAGGUCCGUGAGAAUUUUGACUCAUCUUUUGCCGCUCUUUAUCAUGAUCUUGAUAUGGGAUUUACACCGAUCAACUUUACAUUUUACUGGGCACCUCUACCUUGGAAUCGUGCUCGUGAUCAUGCCCAAAGAACUGUUGCUAGGA
# antisense: UCCUAGCAACAGUUCUUUGGGCAUGAUCACGAGCACGAUUCCAAGGUAGAGGUGCCCAGUAAAAUGUAAAGUUGAUCGGUGUAAAUCCCAUAUCAAGAUCAUGAUAAAGAGCGGCAAAAGAUGAGUCAAAAUUCUCACGGACCUCUUCUCCUUGUAAGGCAUGUGAAGCAGUAUAUAUAGUGAUUUCCGCCAUAACUUUU
# B6: GS2384 (nucleic acid)
# sense: AUGGGAUUUACACCGAUCAACUUUACAUUUUACUGGGCACCUCUACCUUGGAAUCGUGCUCGUGAUCAUGCCCAAAGAACUGUUGCUAGGACUUAUAUGAAUAUAAUCCAAGCUCGUAGAGAAGAGAAAAGAAGCGGUGAGAAUAAGCAUGAUAUAAUGUGGGAGUUGAUGCGUUCCACUUAUAAAGACGGGACUCCGGU
# antisense: ACCGGAGUCCCGUCUUUAUAAGUGGAACGCAUCAACUCCCACAUUAUAUCAUGCUUAUUCUCACCGCUUCUUUUCUCUUCUCUACGAGCUUGGAUUAUAUUCAUAUAAGUCCUAGCAACAGUUCUUUGGGCAUGAUCACGAGCACGAUUCCAAGGUAGAGGUGCCCAGUAAAAUGUAAAGUUGAUCGGUGUAAAUCCCAU
# B7: GS1893: dsRNA trigger SEQ ID NO 124; gene target C2H2 zinc finger domain (nucleic acid)
# chain: CACAACCTTGGGTCTGTCCTTAATTTTTCCACCAAATAATCAATCCTACGACCATTGCGTGGGACAATAATTCAATAAGGAAAATTTAAATAAAAAAAAATTTAAAAAAAAAGAAAAAGAAAAAATTTAATTAAAATCCATAATAAATACTCTGTTAATATTTACAAGGGAATCTTAATTATTCAACCAACCAATTATCTCGGAAAAGGATAAAGGAGTTGGTTTACATCTAACGATTAGAAAGCCTTTGAACCTAGTATGCCCAATTCTCTTCATATGGATACCCAGTTTCACTCAAACAATATGAATAGCAGTACAGCGAATTATAGTTCATTGCCTAGCATTTCGCCTCATCAACTGCAGCAGCAAAATCAAATGCCGACTCATATTCT
# B8: GS1892: dsRNA trigger SEQ ID NO 148; gene target COP9 signalosome complex subunit 5 (nucleic acid)
# chain: CGAGCTCTTATAGTGTGAGATCTGCAGCGAGTAGTATCTACTACTATGGGCACCGAAATCTTCGATCTTAGATAGTGGTATCGTTTGATAACCATCGTTAGTTGACGATTCTGCCGCCTTGTAGTTTTCTGGATAGGTCCGGAATGCACCTATTTCAACCTTACCAGCTGAGATGGTGCGATCTGGGTCAATGACAACCGCAAGAAAAGGATCCGAGAATGATTGCTGTATATGCTGTGTGCTAACATCTATGCCACTGAGCCAGCAGCCATAGCCTGGATGACTGTGGTACCACCCCACTGCATTCTCTAACTTTCCTTGCTCTCGACATGCCTGGAGATAACGAACCATATATTCATTTGCCTCATCTTGGGCATTAACACGTGTCTCCGTGCCTTC
# B9: GS1891: dsRNA trigger SEQ ID NO 122; gene target eka-like_protein (nucleic acid)
# chain: CACCAACTGGGTGTCAGTACTAATACCAACAGTTCCAGCTGTTTTACATAAAGAACAAGGAGTAGTTGAAGTGAGCAACAGCATGCTTGCTGATGAGGTGGAACGTGTCTGCTCTGTGCGGCCAGCTCACATAAAGCTTTATGGAAGAAATAAACCTGAGGCACCGTATCGAACATGGATGGCTTTCTTCCCGAAAGCTCCACGCGGCACTTTTAAAGTGTTCGACGAATCTGGAATTGCGAGCGAGGTCTTTTAAAAAGCAGCAACCTCTCGAATTTTGTAAAAGATGCAATGGGCACCACTCTATTAAAAATTGCTCAAGGGCTCCTTCGTGCGGAAATTGTGGCTCGACCAATCATACCGAGGATTTATGTATGGCCGCAACTAAGTGTAGAAATTGTGG
# B10: GS1895: dsRNA trigger SEQ ID NO 125; gene target eka-like_protein (nucleic acid)
# chain: ACGCGCGGCTAATGATATGCACAATGCACGGTGATTAGTAGCATAGATAGTACATTAGCGACTTTTACAAAAGAAGTAGAGATAGAAGAGGCTGTAGCTTTCAAAGCGTACCTCAAACTTGCAATAGCAAACTTTGCAGCAGTAGATTCGTCCCCTCCTCCACCTCGTGTCCCATTACATACAAGACCGAATAAAGGTAACGGAAATGATAGCAGTAAAGGGAAAAGTAAAGAGAAAAACTTGTCAAAGATAGCAGTCGCAATACCTCGTATTGCTTGTAATCGAATTATCATGGGCCACAGTAATCAAAATCCAAATCTGGGTACGATCAAAGAAATAGAATTACCAAAAATTATTAAAAATATGATATA
# Test system: E. necator
# Assay: Leaf disc assay, dry inoculum (settling tower), decrease in disease severity / hyphal growth (Example 2)
# Conditions: decrease in disease severity (hyphal growth) relative to untreated control; time point 1 (untreated control hyphal growth ≥50%); value ± SE
row,Molecule,% decrease =/− SE TP1 [%]
1,B1,6 ± 0
2,B2,4 ± 6
3,B3,26 ± 9
4,B4,34 ± 5
5,B5,17 ± 0
6,B6,20 ± 0
7,B7,5 ± 5
8,B8,8 ± 5
9,B9,3 ± 7

# Same assay, conditions: decrease in disease severity (hyphal growth) relative to untreated control; time point 2; value ± SE
row,Molecule,% decrease =/− SE TP2 [%]
1,B10,4 ± 7
2,B1,5 ± 0
3,B2,0 ± 6
4,B3,9 ± 9
5,B4,46 ± 6
6,B5,4 ± 0
7,B6,8 ± 0
8,B8,3 ± 6
9,B9,4 ± 7
